In patent US6808893 (Johns Hopkins, dated 2004):

Experiments:
[1] = biological target: T1, myc-tagged full-length GTRAP4-41 (rat, UniProt Q9QWN8 2-2388); assay: co-immunoprecipitation from transfected HEK 293T cells
T1 construct: tested from solubilized cell extract; also called myc-tagged GTRAP4-41; not shown: myc tag of the myc-tagged pRK5 vector

[2] = biological target: T2, GST (glutathione S-transferase) alone (UniProt P08515 1-218 = GST); assay: cell-free binding to protein immobilized on glutathione-Sepharose
T2 construct: Control, immobilized on glutathione-Sepharose
Method: The interaction of GTRAP3-18 with EAAC1 was examined using in vitro and in vivo methods. For in vitro cell-free binding, EAAC1 was expressed as a fusion protein with glutathione S-transferase (GST), and GTRAP3-18 was produced and labeled with [^35S]-methionine by in vitro transcription and translation. Purified GST or GST-EAAC 1 fusion proteins immobilized on glutathione-Sepharose were incubated with [^35S]-labeled GTRAP3-18 protein. GTRAP3-18 specifically binds to immobilized GST-EAAC1 but not to GST alone, indicating an in vitro interaction.

T1 sequence (Q9QWN8 other isoform, or with tags, fused parts or gaps): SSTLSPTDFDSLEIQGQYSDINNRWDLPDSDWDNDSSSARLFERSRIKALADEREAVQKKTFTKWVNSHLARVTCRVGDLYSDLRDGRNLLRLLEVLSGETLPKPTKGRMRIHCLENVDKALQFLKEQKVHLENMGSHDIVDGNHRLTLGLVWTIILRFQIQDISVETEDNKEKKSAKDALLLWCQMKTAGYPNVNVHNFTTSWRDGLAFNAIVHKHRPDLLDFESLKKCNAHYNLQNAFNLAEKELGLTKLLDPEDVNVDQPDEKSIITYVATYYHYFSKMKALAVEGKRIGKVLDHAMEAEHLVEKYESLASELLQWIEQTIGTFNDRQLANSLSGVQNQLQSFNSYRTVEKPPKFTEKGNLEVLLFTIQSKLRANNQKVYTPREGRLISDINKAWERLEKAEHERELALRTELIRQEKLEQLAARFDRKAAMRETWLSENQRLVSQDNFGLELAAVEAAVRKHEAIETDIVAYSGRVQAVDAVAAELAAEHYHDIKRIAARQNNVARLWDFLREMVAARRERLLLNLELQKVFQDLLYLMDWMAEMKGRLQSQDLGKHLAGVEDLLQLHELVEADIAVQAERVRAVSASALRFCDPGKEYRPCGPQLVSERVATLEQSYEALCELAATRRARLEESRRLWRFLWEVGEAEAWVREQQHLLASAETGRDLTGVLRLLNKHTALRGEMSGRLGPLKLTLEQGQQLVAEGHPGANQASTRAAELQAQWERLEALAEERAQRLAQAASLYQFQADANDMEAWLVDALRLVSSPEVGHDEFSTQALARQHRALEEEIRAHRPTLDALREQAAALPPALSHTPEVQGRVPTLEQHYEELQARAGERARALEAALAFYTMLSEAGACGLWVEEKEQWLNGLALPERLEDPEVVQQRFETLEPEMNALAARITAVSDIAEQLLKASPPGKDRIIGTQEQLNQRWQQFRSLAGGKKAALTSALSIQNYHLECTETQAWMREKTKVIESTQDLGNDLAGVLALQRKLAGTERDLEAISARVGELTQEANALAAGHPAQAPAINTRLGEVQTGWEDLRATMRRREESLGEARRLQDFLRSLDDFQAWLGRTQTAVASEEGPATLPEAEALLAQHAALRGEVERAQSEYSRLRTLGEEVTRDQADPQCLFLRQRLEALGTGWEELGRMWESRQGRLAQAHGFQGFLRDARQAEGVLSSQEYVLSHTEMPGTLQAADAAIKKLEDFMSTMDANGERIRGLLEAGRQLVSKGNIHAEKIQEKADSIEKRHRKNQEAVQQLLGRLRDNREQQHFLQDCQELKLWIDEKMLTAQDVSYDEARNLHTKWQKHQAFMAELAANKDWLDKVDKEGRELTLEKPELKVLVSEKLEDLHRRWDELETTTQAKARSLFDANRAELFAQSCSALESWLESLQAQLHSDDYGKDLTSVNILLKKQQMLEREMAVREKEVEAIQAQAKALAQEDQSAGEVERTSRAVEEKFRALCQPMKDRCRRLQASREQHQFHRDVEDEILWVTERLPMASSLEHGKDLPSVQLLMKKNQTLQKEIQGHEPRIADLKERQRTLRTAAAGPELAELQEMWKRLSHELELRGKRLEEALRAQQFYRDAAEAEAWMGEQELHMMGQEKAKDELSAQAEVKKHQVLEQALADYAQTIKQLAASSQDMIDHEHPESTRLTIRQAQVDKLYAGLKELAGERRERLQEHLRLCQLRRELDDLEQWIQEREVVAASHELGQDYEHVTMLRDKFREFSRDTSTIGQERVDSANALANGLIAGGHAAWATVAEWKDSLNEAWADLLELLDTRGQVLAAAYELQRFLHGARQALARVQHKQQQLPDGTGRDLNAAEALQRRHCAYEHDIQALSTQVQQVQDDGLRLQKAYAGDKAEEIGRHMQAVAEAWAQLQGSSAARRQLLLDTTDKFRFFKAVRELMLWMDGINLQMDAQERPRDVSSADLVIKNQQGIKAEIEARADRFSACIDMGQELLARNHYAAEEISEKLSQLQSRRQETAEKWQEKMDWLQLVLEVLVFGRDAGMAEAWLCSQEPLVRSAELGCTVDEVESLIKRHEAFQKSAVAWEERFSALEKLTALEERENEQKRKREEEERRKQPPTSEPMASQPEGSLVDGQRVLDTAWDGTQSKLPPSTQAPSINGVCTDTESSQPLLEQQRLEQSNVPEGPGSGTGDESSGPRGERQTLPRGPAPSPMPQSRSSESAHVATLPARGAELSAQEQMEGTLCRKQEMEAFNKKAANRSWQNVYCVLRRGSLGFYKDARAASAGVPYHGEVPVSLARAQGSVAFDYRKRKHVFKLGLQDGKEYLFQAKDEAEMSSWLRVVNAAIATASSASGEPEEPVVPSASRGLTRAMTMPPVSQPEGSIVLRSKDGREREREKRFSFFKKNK
T2 sequence (P08515 whole entry): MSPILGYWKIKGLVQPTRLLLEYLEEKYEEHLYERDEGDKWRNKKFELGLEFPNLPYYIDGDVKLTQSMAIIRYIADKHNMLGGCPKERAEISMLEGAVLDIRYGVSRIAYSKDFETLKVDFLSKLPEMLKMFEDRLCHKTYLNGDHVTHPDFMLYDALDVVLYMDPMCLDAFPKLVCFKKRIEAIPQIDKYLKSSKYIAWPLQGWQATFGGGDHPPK

| binding result [1] | binding result [2] | Binder |
| --- | --- | --- |
| no binding |  | myc-tagged full-length GTRAP4-48 (other, tested from solubilized cell extract; also called myc-tagged GTRAP4-48; not shown: myc tag of the myc-tagged pRK5 vector) MSIRLPHSIDRSASKKQSHLSSPIASWLSSLSSLGDSTPERTSPSHHRQPSDTSETTAGLVQRCVIIQKDQHGFGFTVSGDRIVLVQSVRPGGAAMKAGVKEGDRIIKVNGTMVTNSSHLEVVKLIKSGAYAALTLLGSSPPSVGVSGLQQNPSVAGVLRVNPIIPPPPPPPPLPPPQHITGPKPLQDPEVQKHATQILWNMLRQEEEELQDILPPCGETSQRTCEGRLSVDSQEADSGLDSGTERFPSISESLMNRNSVLSDPGLDSPQTSPVILARVAQHHRRQGSDAALLPLNHQGIDQSPKPLIIGPEEDYDPGYFNNESDIIFQDLEKLKSHPAYLVVFLRYILSQADPGPLLFYLCSEVYQQTNPKDSRSLGKDIWNIFLEKNAPLRVKIPEMLQAEIDLRLRNNEDPRNVLCEAQEAVMLEIQEQINDYRSKRTLGLGSLYGENDLLGLDGDPLRERQMAEKQLAALGDILSKYEEDRSAPMDFAVNTFMSHAGIRLRESRSSCTAEKTQSAPDKDKWLPFFPKTKKQSSNSKKEKDALEDKKRNPILRYIGKPKSSSQSIKPGNVRNIIQHFENSHQYDVPEPGTQRLSTGSFPEDLLESDSSRSEIRLGRSGSLKGREEMKRSRKAENVPRPRSDVDMDAAAEAARLHQSASSSASSLSTRSLENPTPPFTPKMGRRSIESPNLGFCTDVILPHLLEDDLGQLSDLEPEPEVQNWQHTVGKDVVANLTQREIDRQEVINELFVTEASHLRTLRVLDLIFYQRMRKENLMPREELARLFPNLPELIEIHNSWCEAMKKLREEGPIIRDISDPMLARFDGPAREELQQVAAQFCSYQSVALELIRTKQRKESRFQLFMQEAESHPQCRRLQLRDLIVSEMQRLTKYPLLLENIIKHTEGGTSEHEKLCRARDQCREILKFVNEAVKQTENRHRLEGYQKRLDATALERASNPLAAEFKSLDLTTRKMIHEGPLTWRISKDKTLDLQVLLLEDLVVLLQRQEERLLLKCHSKTAVGSSDSKQTFSPVLKLNAVLIRSVATDKRAFFIICTSELGPPQIYELVALTSSDKNIWMELLEEAVQNATKHPGAAPIPIHPSPPGSQEPAYQGSTSSRVEINDSEVYHTEKEPKKLPEGPGPEQRVQDKQLIAQGEPVQEEDEEELRTLPRAPPSLDGENRGIRTRDPVLLALTGPLLMEGLADAALEDVENLRHLILWSLLPGHTVKTQAAGEPEDDLTPTPSVVSITSHPWDPGSPGQAPTISDSTRLARPEGSQPEGEDVAVSSLAHLPPRTRSSGVWDSPELDRNPAAEAASTEPAASYKVVRKVSLLPGGGVGAAKVAGSNAIPDSGQSESELSEVEGGAQATGNCFYVSMPAGPLDSSTEPTGTPPSPSQCHSLPAWPTEPQPYRGVRGGQCSSLVRRDVDVIFHTIEQLTIKLHRLKDMELAHRELLKSLGGESSGGTTPVGSFHTEAARWTDYSLSPPAKEALASDSQNGQEQGSCPEEGSDIALEDSATDTAVSPGP |
|  | no binding | [35S]-methionine labelled GTRAP3-18 made by in vitro transcription and translation (other, labeled with [35S]-methionine, also called [35S]-labeled GTRAP3-18 protein) MDVNLAPLRAWDDFFPGSDRFARPDFRDISKWNNRVVSNLLYYQTNYLVVAAMMISVVGFLSPFNMILGGIIVVLVFTGFVWAAHNKDILRRMKKQYPTAFVMVVMLASYFLISMFGGVMVFVFGITFPLLLMFIHASLRLRNLKNKLENKMEGIGLKKTPMGIILDALEQQEDSINKFADYISKARE |
